Measurements from PMC9482650, “Quantitative fragmentomics allow affinity mapping of interactomes” (Nature Communications, 2022).

T1: APBA2_2, Q99767
T1 sequence (Q99767 654-744, limits assumed, looked up): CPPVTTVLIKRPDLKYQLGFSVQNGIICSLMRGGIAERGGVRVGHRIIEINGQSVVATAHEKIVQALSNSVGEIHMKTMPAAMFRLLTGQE

T2: DFNB31_2, Q9P202
T2 sequence (Q9P202 274-371, limits assumed, looked up): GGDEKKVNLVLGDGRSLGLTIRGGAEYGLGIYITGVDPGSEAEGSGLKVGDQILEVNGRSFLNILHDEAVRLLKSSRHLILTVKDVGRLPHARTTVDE

T3: GRIP1_7, Q9Y3R0
T3 sequence (Q9Y3R0 999-1096, limits assumed, looked up): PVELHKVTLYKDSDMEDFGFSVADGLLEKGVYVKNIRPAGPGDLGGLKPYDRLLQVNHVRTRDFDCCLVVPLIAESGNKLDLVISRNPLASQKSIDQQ

T4: HTRA4, P83105
T4 sequence (P83105 378-476, limits assumed, looked up): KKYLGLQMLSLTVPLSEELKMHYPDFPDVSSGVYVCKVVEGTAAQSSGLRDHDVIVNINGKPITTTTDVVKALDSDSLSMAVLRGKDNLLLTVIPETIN

T5: LIN7A, O14910
T5 sequence (O14910 103-200, limits assumed, looked up): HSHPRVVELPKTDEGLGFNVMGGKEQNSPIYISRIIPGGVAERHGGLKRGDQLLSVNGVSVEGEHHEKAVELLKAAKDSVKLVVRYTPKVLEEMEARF

T6: LNX2_2, Q8N448
T6 sequence (Q8N448 334-432, limits assumed, looked up): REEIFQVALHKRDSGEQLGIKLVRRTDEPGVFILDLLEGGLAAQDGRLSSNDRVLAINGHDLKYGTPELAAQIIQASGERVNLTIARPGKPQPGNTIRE

T7: MPDZ_10, O75970
T7 sequence (O75970 1624-1722, limits assumed, looked up): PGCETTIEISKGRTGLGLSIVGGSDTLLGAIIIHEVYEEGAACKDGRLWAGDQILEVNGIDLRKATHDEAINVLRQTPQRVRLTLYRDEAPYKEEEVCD

T8: MPP2, Q14168
T8 sequence (Q14168 180-250, limits assumed, looked up): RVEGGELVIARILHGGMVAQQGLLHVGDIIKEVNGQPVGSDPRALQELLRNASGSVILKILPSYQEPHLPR

T9: NHERF3_4, Q5T2W1
T9 sequence (Q5T2W1 373-468, limits assumed, looked up): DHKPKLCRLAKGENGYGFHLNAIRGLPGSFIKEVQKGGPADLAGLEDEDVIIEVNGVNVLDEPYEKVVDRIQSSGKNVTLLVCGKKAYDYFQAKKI

T10: PCLO, Q9Y6V0
T10 sequence (Q9Y6V0 4491-4600, limits assumed, looked up): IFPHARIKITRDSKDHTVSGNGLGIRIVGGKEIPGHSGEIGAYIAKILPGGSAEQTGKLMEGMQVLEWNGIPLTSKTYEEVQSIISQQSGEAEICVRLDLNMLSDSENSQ

T11: RADIL, Q96JH8
T11 sequence (Q96JH8 971-1071, limits assumed, looked up): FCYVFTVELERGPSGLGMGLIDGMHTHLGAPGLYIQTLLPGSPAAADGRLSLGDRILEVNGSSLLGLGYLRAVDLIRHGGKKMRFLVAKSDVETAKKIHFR

T12: TX1BP3, O14907
T12 sequence (O14907 10-122, limits assumed, looked up): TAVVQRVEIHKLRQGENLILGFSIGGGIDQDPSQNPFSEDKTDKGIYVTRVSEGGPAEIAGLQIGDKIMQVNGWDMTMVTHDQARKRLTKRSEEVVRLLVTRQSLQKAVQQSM


Columns and labels:
Experiment in all cases: holdup assay
Design in all cases: key: below the threshold = too weak to quantify, mostly under pKd 3.1 to 4
Settings in all cases: plain residues with an end cap or a label only (N-terminal biotin on a linker: ado-ado)
[1] = molecular target: T1, APBA2_2, Q99767
[2] = molecular target: ARHGEF12, Q9NZN5-2
Chain of ARHGEF12, Q9NZN5-2 (Q9NZN5 other isoform, or with tags, fused parts or gaps): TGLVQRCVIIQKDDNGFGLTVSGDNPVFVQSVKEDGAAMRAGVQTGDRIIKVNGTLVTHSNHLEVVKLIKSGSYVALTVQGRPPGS

[3] = molecular target: T2, DFNB31_2, Q9P202
[4] = molecular target: FRMPD2_2, Q68DX3
Chain of FRMPD2_2, Q68DX3 (Q68DX3 944-1038): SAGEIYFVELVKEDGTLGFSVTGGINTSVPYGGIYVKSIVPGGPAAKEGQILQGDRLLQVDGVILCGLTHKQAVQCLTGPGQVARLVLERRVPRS

[5] = molecular target: FRMPD2_3, Q68DX3
Chain of FRMPD2_3, Q68DX3 (Q68DX3 1073-1166): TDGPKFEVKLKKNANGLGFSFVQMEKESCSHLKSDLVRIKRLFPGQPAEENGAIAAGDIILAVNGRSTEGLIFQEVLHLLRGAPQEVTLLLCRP

[6] = molecular target: T3, GRIP1_7, Q9Y3R0
[7] = molecular target: T4, HTRA4, P83105
[8] = molecular target: IL16_3, Q14005
Chain of IL16_3, Q14005 (Q14005 1107-1207): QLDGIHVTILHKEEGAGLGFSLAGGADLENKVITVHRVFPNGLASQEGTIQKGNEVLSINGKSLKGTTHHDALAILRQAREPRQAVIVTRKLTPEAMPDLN

[9] = molecular target: Inadl_10, Q8NI35
Chain of Inadl_10, Q8NI35 (Q8NI35 1673-1763): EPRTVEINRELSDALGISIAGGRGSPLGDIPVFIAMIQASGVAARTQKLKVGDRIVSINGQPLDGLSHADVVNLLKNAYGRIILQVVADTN

[10] = molecular target: Inadl_5, Q8NI35
Chain of Inadl_5, Q8NI35 (Q8NI35 673-780): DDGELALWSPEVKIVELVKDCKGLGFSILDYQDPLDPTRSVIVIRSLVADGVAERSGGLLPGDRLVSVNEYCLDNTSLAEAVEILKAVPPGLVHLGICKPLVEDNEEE

[11] = molecular target: Inadl_8, Q8NI35
Chain of Inadl_8, Q8NI35 (Q8NI35 1425-1530): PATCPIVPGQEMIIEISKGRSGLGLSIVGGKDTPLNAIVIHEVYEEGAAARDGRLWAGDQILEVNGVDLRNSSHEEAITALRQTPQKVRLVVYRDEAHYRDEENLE

[12] = molecular target: Inadl_9, Q8NI35
Chain of Inadl_9, Q8NI35 (Q8NI35 1530-1615): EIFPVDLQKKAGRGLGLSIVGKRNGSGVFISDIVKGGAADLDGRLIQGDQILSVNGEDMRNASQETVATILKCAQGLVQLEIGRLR

[13] = molecular target: T5, LIN7A, O14910
[14] = molecular target: LNX1_3, Q8TBB1
Chain of LNX1_3, Q8TBB1 (Q8TBB1 500-596): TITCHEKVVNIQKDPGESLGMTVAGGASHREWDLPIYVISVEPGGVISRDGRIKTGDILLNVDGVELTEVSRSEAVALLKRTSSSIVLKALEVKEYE

[15] = molecular target: T6, LNX2_2, Q8N448
[16] = molecular target: MAGI1_1, Q96QZ7
Chain of MAGI1_1, Q96QZ7 (Q96QZ7 1-106): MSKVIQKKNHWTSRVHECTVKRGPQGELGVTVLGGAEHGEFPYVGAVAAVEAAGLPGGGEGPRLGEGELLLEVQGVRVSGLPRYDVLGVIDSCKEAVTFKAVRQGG

[17] = molecular target: MAGI1_2, Q96QZ7
Chain of MAGI1_2, Q96QZ7 (Q96QZ7 456-580): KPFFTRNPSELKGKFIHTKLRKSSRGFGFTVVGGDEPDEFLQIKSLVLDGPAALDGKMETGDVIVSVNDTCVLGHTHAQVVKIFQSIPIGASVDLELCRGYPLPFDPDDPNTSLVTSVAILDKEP

[18] = molecular target: MAGI3_2, Q5TCQ9
Chain of MAGI3_2, Q5TCQ9 (Q5TCQ9 398-503): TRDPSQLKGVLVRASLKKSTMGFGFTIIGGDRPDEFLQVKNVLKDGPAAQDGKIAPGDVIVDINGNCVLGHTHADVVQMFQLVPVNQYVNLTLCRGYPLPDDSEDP

[19] = molecular target: T7, MPDZ_10, O75970
[20] = molecular target: T8, MPP2, Q14168
[21] = molecular target: T9, NHERF3_4, Q5T2W1
[22] = molecular target: T10, PCLO, Q9Y6V0
[23] = molecular target: T11, RADIL, Q96JH8
[24] = molecular target: TJP1_2, Q07157
Chain of TJP1_2, Q07157 (Q07157 181-274): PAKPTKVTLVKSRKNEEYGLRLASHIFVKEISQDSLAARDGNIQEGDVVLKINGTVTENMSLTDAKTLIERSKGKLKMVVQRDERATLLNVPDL

[25] = molecular target: TJP2_1, Q9UDY2
Chain of TJP2_1, Q9UDY2 (Q9UDY2 24-128): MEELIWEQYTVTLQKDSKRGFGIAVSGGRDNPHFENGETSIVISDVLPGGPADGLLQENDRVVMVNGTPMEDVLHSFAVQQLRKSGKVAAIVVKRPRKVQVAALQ

[26] = molecular target: T12, TX1BP3, O14907

Binder	pKd [1]	pKd [2]	pKd [3]	pKd [4]	pKd [5]	pKd [6]	pKd [7]	pKd [8]	pKd [9]	pKd [10]	pKd [11]	pKd [12]	pKd [13]	pKd [14]	pKd [15]	pKd [16]	pKd [17]	pKd [18]	pKd [19]	pKd [20]	also measured
QKNKDREYYV [NRXN3, Q9HDB5]	below the threshold	3.65	below the threshold	3.78	4.38	4.62	below the threshold	below the threshold	below the threshold	4.64	3.48	4.56	below the threshold	4.09	4.81	below the threshold	below the threshold	4.75	below the threshold	4.39	pKd [21]: below the threshold; pKd [22]: below the threshold; pKd [23]: 4.7; pKd [24]: 3.57; pKd [25]: 3.52; pKd [26]: below the threshold
KKTPVSRSHL [SLC22A3, O75751]	below the threshold	4.2	below the threshold	below the threshold	below the threshold	below the threshold	3.81	below the threshold	below the threshold	below the threshold	below the threshold	below the threshold	below the threshold	below the threshold	below the threshold	below the threshold	3.62	below the threshold	below the threshold	below the threshold	pKd [21]: below the threshold; pKd [22]: below the threshold; pKd [23]: below the threshold; pKd [24]: below the threshold; pKd [25]: below the threshold; pKd [26]: 3.53
KAEEKPPSKV [SCN4B, Q8IWT1]	below the threshold	below the threshold	below the threshold	below the threshold	below the threshold	below the threshold	3.93	below the threshold	below the threshold	below the threshold	3.98	3.8	below the threshold	below the threshold	below the threshold	below the threshold	below the threshold	below the threshold	3.71	below the threshold	pKd [21]: below the threshold; pKd [22]: below the threshold; pKd [23]: below the threshold; pKd [24]: below the threshold; pKd [25]: below the threshold; pKd [26]: below the threshold
NTALVESEDL [PALLS, Q8WX93;Q8WX93-1]	below the threshold	below the threshold	below the threshold	below the threshold	below the threshold	below the threshold	below the threshold	below the threshold	below the threshold	below the threshold	below the threshold	below the threshold	below the threshold	below the threshold	below the threshold	below the threshold	below the threshold	below the threshold	below the threshold	below the threshold	pKd [21]: below the threshold; pKd [22]: below the threshold; pKd [23]: below the threshold; pKd [24]: below the threshold; pKd [25]: below the threshold; pKd [26]: below the threshold
HDDYFYHDEL [RCN2, Q14257]	below the threshold	below the threshold	below the threshold	below the threshold	below the threshold	below the threshold	below the threshold	below the threshold	below the threshold	below the threshold	below the threshold	below the threshold	below the threshold	below the threshold	below the threshold	below the threshold	below the threshold	below the threshold	below the threshold	below the threshold	pKd [21]: below the threshold; pKd [22]: below the threshold; pKd [23]: 3.5; pKd [24]: below the threshold; pKd [25]: below the threshold; pKd [26]: 3.9
